Measured values reported in article PMC2713992 (Nature immunology, 2009).

Target: complement component 3b (C3b) (human, UniProt P01024 23-667; P01024 749-1663)
Assay: SPR

Chain of complement component 3b (C3b) (P01024 23-667, chain 1 of 2): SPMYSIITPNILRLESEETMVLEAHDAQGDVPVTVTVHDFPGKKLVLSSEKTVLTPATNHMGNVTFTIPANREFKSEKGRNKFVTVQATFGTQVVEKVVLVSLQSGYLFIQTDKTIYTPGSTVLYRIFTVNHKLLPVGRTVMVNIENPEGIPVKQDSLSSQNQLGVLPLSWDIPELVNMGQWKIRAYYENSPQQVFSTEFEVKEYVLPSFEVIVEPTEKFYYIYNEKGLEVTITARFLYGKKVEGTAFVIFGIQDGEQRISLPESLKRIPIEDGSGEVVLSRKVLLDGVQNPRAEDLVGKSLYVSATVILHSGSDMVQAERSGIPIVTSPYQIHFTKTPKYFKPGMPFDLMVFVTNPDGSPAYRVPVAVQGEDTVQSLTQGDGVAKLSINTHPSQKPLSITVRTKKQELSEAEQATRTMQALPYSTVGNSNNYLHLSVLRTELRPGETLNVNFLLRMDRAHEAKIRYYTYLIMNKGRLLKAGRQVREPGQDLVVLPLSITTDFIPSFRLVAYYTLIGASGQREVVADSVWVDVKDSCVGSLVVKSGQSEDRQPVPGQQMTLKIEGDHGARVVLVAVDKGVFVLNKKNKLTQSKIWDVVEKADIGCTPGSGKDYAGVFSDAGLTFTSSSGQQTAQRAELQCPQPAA
Chain of complement component 3b (C3b) (P01024 749-1663, chain 2 of 2): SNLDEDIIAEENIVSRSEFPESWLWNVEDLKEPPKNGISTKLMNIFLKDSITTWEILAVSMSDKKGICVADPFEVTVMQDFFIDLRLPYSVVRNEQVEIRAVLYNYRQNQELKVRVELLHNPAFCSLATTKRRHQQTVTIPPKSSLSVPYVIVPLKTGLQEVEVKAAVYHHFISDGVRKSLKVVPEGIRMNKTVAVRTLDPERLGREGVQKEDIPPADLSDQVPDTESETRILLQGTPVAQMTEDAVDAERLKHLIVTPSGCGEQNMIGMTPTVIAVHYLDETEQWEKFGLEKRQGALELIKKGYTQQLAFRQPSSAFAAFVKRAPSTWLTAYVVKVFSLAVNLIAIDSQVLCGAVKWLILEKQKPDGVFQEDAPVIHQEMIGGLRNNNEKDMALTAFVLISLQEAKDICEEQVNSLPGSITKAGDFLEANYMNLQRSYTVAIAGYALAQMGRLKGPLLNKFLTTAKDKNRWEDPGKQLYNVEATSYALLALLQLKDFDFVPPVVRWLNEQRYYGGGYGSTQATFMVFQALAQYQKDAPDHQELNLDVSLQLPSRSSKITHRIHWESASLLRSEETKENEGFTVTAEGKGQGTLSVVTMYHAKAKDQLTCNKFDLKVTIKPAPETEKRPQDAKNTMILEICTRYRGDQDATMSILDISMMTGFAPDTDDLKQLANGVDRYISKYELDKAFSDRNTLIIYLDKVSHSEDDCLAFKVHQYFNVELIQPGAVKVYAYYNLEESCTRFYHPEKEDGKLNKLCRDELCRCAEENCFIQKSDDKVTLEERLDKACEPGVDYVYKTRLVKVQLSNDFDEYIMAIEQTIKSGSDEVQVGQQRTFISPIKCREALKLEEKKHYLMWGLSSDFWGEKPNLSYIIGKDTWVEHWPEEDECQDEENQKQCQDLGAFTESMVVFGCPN

Kd: 11 ± 2 µM | stoichiometry N: 1
B1: FH(1–4), recombinant N-terminal four CCP domains (CCP1-4, residues 1–246) of human factor H (domain or fragment, UniProt P08603 19-264, looked up)
chain: EDCNELPPRRNTEILTGSWSDQTYPEGTQAIYKCRPGYRSLGNVIMVCRKGEWVALNPLRKCQKRPCGHPGDTPFGTFTLTGGNVFEYGVKAVYTCNEGYQLLGEINYRECDTDGWTNDIPICEVVKCLPVTAPENGKIVSSAMEPDREYHFGQAVRFVCNSGYKIEGDEEMHCSDDGFWSKEKPKCVEISCKSPDVINGSPISQKIIYKENERFQYKCNMGYEYSERGDAVCTESGWRPLPSCEE
